Data from paper PMC4904194, “Crystal structure of tyrosine decarboxylase and identification of key residues involved in conformational swing and substrate binding” (Scientific Reports, 2016).

B1: Lactobacillus brevis tyrosine decarboxylase in complex with PLP, holo form (enzyme, Lactobacillus brevis CGMCC 1.2028)
chain: MEKSNRSLKDLDLNALFIGDKAENGQLYKDLLNKLVDEHLGWRKNYIPSDPNMIGPEDQNSPAFKKTVGHMKTVLDQLSERIRTESVPWHSAGRYWGHMNSETLMPALLAYNYAMLWNGNNVAYESSPATSQMEEEVGQEFARLMGYDYGWGHIVADGSLANLEGLWYARNIKSLPFAMKEVNPELVAGKSDWELLNMPTKEIMDLLENAGSQIDEVKKRSARSGKNLQRLGKWLVPQTKHYSWMKAADIIGIGLDQVVPVPIDSNYRMDIQALESIIRKYAAEKTPILGVVGVAGSTEEGAVDGIDKIVALRQKLQKEGIYFYLHVDAAYGGYARALFLDEDDQFIPYKNLQKVHAENHVFTEDKEYIKPEVYAAYKAFDQAESITIDPHKMGYVPYSAGGIVIQDIRMRDTISYFATYVFEKGADIPALLGAYILEGSKAGATAASVWAAHHTLPLNVTGYGKLEGASIEGAHRYYDFLKNLKFEVAGKRISVHPLISPDFNMVDYVLKEDGNDDLIEMNRLNHAFYEQASYVKGSLYGKEYIVSHTDFAIPDYGDSPLAFVESLGFSEVEWRHAGKVTIIRASVMTPYMNQRENFDYFAPRIKKAIQADLEKVYASVNQKENV
modifications: PLP covalently attached to the ε-amino group of K392 (internal aldimine, Schiff base)
notes: Tyrosine decarboxylase (TDC, EC 4.1.1.25) of Lactobacillus brevis CGMCC 1.2028; domains in the structure span residues 7-618; also called holo-LbTDC; LbTDC/PLP complex; source: E. coli BL21(DE3) harboring pET24a-tdc, purified (Ni2+-agarose column); crystallized with PLP at a molar ratio of 1:4
B2: Lactobacillus brevis tyrosine decarboxylase, apo form (without PLP) (enzyme, Lactobacillus brevis CGMCC 1.2028)
chain: B1 chain
notes: Tyrosine decarboxylase (TDC, EC 4.1.1.25) of Lactobacillus brevis CGMCC 1.2028; domains in the structure span residues 7-618; A selenomethionine form was used only for phasing; also called apo-LbTDC; LbTDC; source: E. coli BL21(DE3) harboring pET24a-tdc, purified (Ni2+-agarose column)

Assays:
[1] = target: the molecule itself; test: crystal structure; LbTDC/PLP complex at a molar ratio of 1:4, 0.1 M sodium cacodylate trihydrate pH 7.0, 0.1 M MgCl2, 16% PEG 4000; space group P21
[2] = target: the molecule itself; test: crystal structure; apo-LbTDC, sitting-drop vapor diffusion at 18 °C, 0.1 M sodium cacodylate trihydrate pH 7.5, 0.2 M MgCl2, 18% PEG 1000; space group P21

| Protein | stoichiometry N [1] | stoichiometry N [2] |
| --- | --- | --- |
| B1 | 2 | – |
| B2 | – | 2 |
